Measurements: US20260258115A1 (MAPP BIOPHARMACEUTICAL, published 2026)

molecular target: RSV F on RSV-A2 virus (Respiratory syncytial virus (RSV-A2)); assay: cell-based or functional assay

Binder	Neutralization IC50 (RSV subtype A)
ADI-41270 (antibody, V domains shown) VH: EVQLVESGGGVVQPGQSLRLSCAASGFTFSSFAMHWVRQAPGKGLEWVAVISYDGSNKYYADSVKGRFTISRDNSKNTLSLQVNSLRAEDTAVYYCARVSAEGSMGRFSDFNYWGLGTLVTVSS VL: QSALTQPASVSGSPGQSITISCTGTSSDVGSYNLVSWYQQHPGKAPKLMIYEVRKRPSGVSNRFSGSKSGNTASLTISGLQAEDEADYYCCSYAGSDTYVFGTGTKLTVL	> 25 µg/mL
ADI-41278 (antibody, V domains shown) VH: EVQLVESGPALVKPTQTLTLTCTFSGFSLSTKRMGVSWIRQPPGKALEWLARIDWDDDKFYSTSLKTRLTISKDTSKNQVVLTLANMDPVDTATYFCARTTVYASGGYYLYYLDYWGQGTLVTVSS VL: DIVMTQTPSSLSASVGDRVTLTCRASQRIASYVNWYHQKPGKAPNLLIYAASNLQSGVPSRFSGSGSGTDFTLTISSLQPEDFATYYCQQSYSTPLTFGQGTKLEIK	> 25 µg/mL
ADI-41276 (antibody, V domains shown) VH: EVQLVESGGGLVQPGRSLRLSCRASGFTFRNYAMSWVRQAPGKGLEWVGFIRGKGYGGTTEYAASVKGRFTISSDDSRSIAYLQMNSLKTEDTAVYYCTRVREDGVIAVAEYYFDYWGQGTLVTVSS VL: not shown	> 25 µg/mL
ADI-41258 (antibody, V domains shown) VH: QVQLVQSGGGLVQRGGSLRLSCAASGFSFRSYAMSWVRQAPGKGLEWVSSISDSGDNTFYADSVKGRFSISRDNSRDTLYLQMNSLRAEDTAVYYCARGGYCSGGNCFPFDYWGQGTLVTVSS VL: SYELMQLPSVSVSPGQTARITCSGDALPKQYGYWYQQKPGQAPVLVIYKDSERPSGIPERFSGSSSGTTVTLTISGVQAEDEADYYCQSADSGGTYVMFGGGTKLTVL	> 25 µg/mL
ADI-41266 (antibody, V domains shown) VH: QVQLQQSGPGLVKPSQTLSLTCAISGDSVSSNSAAWNWIRQSPSRGLEWLGRTYYRSKWYNDYAVSVKSRITINPDTSKNQFSLQLNSVTPEDTAVYYCARDLPQVDYFDGASFYFFDFWGQGTLVTVSS VL: QPVLTQPPSVSVAPGQTASITCGGNIIGNKGVHWYQQKPGRAPVLVVYDDSDRPSGIPERFSGSNSGNTATLTISRVEAADEADYYCQVWDTGSHPVVFGGGTKVTVL	> 25 µg/mL
ADI-41271 (antibody, V domains shown) VH: QVQLQESGPGLVKPSQTLSLTCAISGDSVSSNNAAWNWIRQSPSRGLEWLGRTYYRSKWYNDYAVSVKSRITINPDTSKNQLSLQLNSVTPEDTAVYYCARAGVRQWLVRGMDAFDIWGQGTMVTVSS VL: not shown	> 25 µg/mL
ADI-41261 (antibody, V domains shown) VH: QVQLVQSGAEVKKPGSSVKVSCKASGGTFSSYGISWVRQAPGQGLEWMGGIIPMFGAANYAQKFQGRVTITAETSTSTAFMELSSLRSDDTAVYYCARIRWVPNWGGTATSFYNGMDVWGQGTTVTVSS VL: EIVMTQSPGTLSLSPGERATLSCRASQSVSSSYLAWYQQKPGQAPRLLIYGASSRATGIPDRFSGSGSGTDFTLTISRLEPEDFAVYYCQHYGSSLFTFGPGTKVDIK	> 25 µg/mL
ADI-41274 (antibody, V domains shown) VH: EVQLVESGGGLVKPGGSLRLSCAASGFSFSSYAMNWVRQAPGKGLQWVSSISAGSSYIDYADSVKGRFTISRDNAENSLFLQMNSLRVEDTAVYYCARVGSYTHGYEFDYWGQGTLVTVSS VL: QPVLTQPPSVSGAPGQRVTISCTGSNSNIGAGYDVHWYQQLPGTAPKLLIYASTIRPSGVPDRFSGSKSGTSASLAITGLQAEDEADYYCQSYDRNLSVVFGGGTKVTVL	0.109 µg/mL
ADI-41256 (antibody, V domains shown) VH: QVQLVQSGAEVKSPGSSATVSCKASGGTFGSYGISWVRQAPGQGLEWIGAIMPMFGTTNYAQKFQGRVTMTADESTSTVYMDVSSLRPDDTAVYYCVRDVFYDILTGYYDADYYHHYMDVWGKGTTVTVSS VL: DIVMTQSPLSLPVTLGQPASISCRSGQSLVHSDGNTYLNWFQQRPGQSPRRLIYKVSNRGSGVPDRFSGSGSGTDFTLKISRVEAEDVGVYFCMQGTHWPRTFGQGTKVDIK	0.02 µg/mL
ADI-41265 (antibody, V domains shown) VH: EVQLVQSGAEVKKPGESLTISCKDSGYSFTSYWIGWVRQVPGKGLEWMGIVYPGDSRYSPSFQGHVTMSADKSINTAYLQWSTLKASDTAMYYCAKVVTYGSAIRWFESWGQGTLVTVSS VL: QSVLTQPPSVSAAPGQKVSISCSGSSSNIGNNFVSWYQQVPGTAPKLLIIDNNKRPSGIPDRFSGSKSGTSATLGITGLQTGDEADYYCGTWDSRLSAEVFGGGTKLTVL	> 25 µg/mL
ADI-41267 (antibody, V domains shown) VH: QVQLVQSGPGLVKPSGTLSLTCAVSGGSISTTHWWSWVRQPPGKGLEWIGEIYHSGSTNYNPSLKSRVTISVDKSRSQFSLKLTSVTAADTAVYYCARGDPLCSGGICYSGYFDYWGQGTLVTVSS VL: SYVLTQPPSVSVSPGQTATITCSGDKLGDQYACWYQQKSGQSPVLVIYRDNKRPSGIPERFSGSNSGNTATLTISETQAMDEADYYCQAWGSSSVVFGGGTKVTVL	> 25 µg/mL
ADI-41273 (antibody, V domains shown) VH: EVQLLESGGDLVRPGGSLRLSCTASGFSFSSSEMNWVRQAPGKGLEWVASINSGGDDIYYADSVKGRFTISRDNAKNSLSLQMDSLRAEDTALYYCARSRSGYSSGWSRFFGNWGQGTLVTVSS VL: QSALTQPRSVSGSPGQSVTISCTGTISDIGAYNYVSWYQQHPGKAPKVMIYDVSKRPSGVPDRFSGSKSGFTASLTISGLQAEDEADYYCCSYAGRWVFGGGTKLTVL	> 25 µg/mL
ADI-41275 (antibody, V domains shown) VH: EVQLVESGGGLVKPGGSLRLSCAASGFMFSTYSMNWVRQAPGKGLEWVSFITGSSSDKYYAHSVKGRFTISRDNAKRTLYLQLNSLRAEDTAVYYCARFRGLYCDGDCSSRGNTYYNYYGMDVWGQGTTVTVSS VL: EIVMTQSPLSLSVIPGEPASISCRSSKSLLHSNGYTYLDWYLQKPGQSPQLLIHLGSNRASGVPDRFSGSGSGTDFTLKISRVEAEDVGVFYCMQALQAPPTFGPGTKVEIK	> 25 µg/mL
ADI-41257 (antibody, V domains shown) VH: QVQLVESGAEVKKPGSSVKVSCKASEGTFSSYGISWVRQAPGQGPEWMGEINPMFGTAKYAQKFQGRVTITVDESTSTADMELSSLTSEDTAVYYCAREFLGQCSETNCPTPSRHLDYWGQGTLVTVSS VL: EIVMTQSPSSLSASVGDRVTITCRASRTISSYLNWYQQKPGKAPKLLIYATSNLQSGVPSRFSGSGSGADFTLTISSLQPEDFATYYCQQTYSTPGFGPGTKVDIK	> 25 µg/mL
ADI-41259 (antibody, V domains shown) VH: QVQLVESGGRLVKPGGSLRLSCAASGFTFSDFYMSWIRQAPGKGLEWVSYISSSGDDPNYADSVKGRFTISRDNSKNSLYLQMNSLRAEDTAVYYCARDEVGWNNLDYYFGMDVWGQGTTVTVSS VL: DIVMTQSPLSLPVTLGQPASISCRSSQSLVHSDGNTYLSWFHQRPGQSPRRLIYKVSNRDSGVPNRFSGGGSGTDFTLKISRVEAEDVGFFYCMQGTHWQKTFGQGTKVEIK	0.02 µg/mL
ADI-41279 (antibody, V domains shown) VH: QVQLVQSGAEVKKAGETLKISCRGPAHTFTSFWIGWVRQTPGKGLEWMGNIYPGDTDTTYSPSFRGQVTISADKSISTAYLQWNSLKASDTAIYYCATRVRHGYSSSGSFESWGQGTMVTVSS VL: QSVVTQPPSVSGAPGQRITISCTGSNSNTGAGYDVHWYQQLPGAAPKLLIFANNNRPSGVPDRFSGSKSGTSASLAITGLQAEDEADYYCQSYDNSLSAYVFGTGTKLTVL	> 25 µg/mL
ADI-41263 (antibody, V domains shown) VH: QVQLVQSGAEVKKPGASVKVYCKASGYTFTSHYIHWVRQAPGQGLEWMGRMNPSGGSPMYAQKFQERVTMTRDTSTSTAYMELRSLRSEDTAVYYCAMAKFYSFDYWGQGTLVTVSS VL: QSVLTQPHSVSESPGKTVTISCTRSSGSIASYFVHWYQQRPGSAPTIVIYEDNQRPSGVPDRFSGSIDSSSNSASLTISGLKTEDEADYYCQSYDSSNWVFGGGTKLTVL	> 25 µg/mL
ADI-41264 (antibody, V domains shown) VH: EVQLVESGGGLVKPGGSLRLSCAASGFTFSNTWMSWVRQAPGKGLEWVGHIKSKTDGGTTDYAAPVKGRFTISRDDSKSILNLHLNSLKTEDSAVYYCAALPPISGWYYTPGFWGQGTLVTVSS VL: SYELTQPPSMSVSPGQTARITCFGDAVPKKYVYWYQQKSGQAPVMVIYDDRRRPSGIPERFSGSSSGARATLTISGAQVEDEADYYCYSTDGSGNPSFGGGTKLTVL	> 25 µg/mL
ADI-41255 (antibody, V domains shown) VH: EVQLVESGGGLVQPGGSLRISCAASGLTFSSYAMSWVRQAPGQGLEWVSSVSGSGVSTYYADSVKGRFTISRDNSKNTLYLQMNSLRAEDTAVYYCAKEDYYHFYMDVWGNGTTVTVSS VL: not shown	> 25 µg/mL
ADI-41268 (antibody, V domains shown) VH: EVQLVESGGGLVKPGGSLRLSCVASGFGFTSYSMNWVRQAPGKGLEWVSSISASSTYIHYADSVKGRFTISRDNARNSLYLQMISLRADDTAVYYCSRDGPTYGSGVHVWGQGTMVTVSS VL: QSALIQPVSVSGSPGQSITISCTGTRSDVGGYNYVSWYQQHPGKAPKLMIYEVRNRPSGVSDRFSGSKSGNTASLTISGLQAEDEGDYYCSSYTSSDTLFYVFGSGTKLTVL	0.177 µg/mL
ADI-41254 (antibody, V domains shown) VH: EVQLVESGGGLVQSGGSLRLSCAASGFTFSSYEMNWVRQAPGKGLEWVSYTTNNGRTIYYADSVKGRFTISRDNAKNSLFLQMNGLRAEDTAVYYCARGIQFSRVDYAMDVWGQGTTVTVSS VL: SYELTQPPSVSGTPGQRITISCSGSSSNIASNTVNWYQHLPGTAPKLLIYSDNQRPSGVPDRFSGSKSGTSASLAISGLQSEDEADYYCAIWDDSLNASYVFGTGTKLTVL	> 25 µg/mL
ADI-41277 (antibody, V domains shown) VH: QVQLQESGPGLVKPSGTLSLTCAVSGGSITGRNWWSWVRQPPGKELERIGEIYHGGSTEYNPSLKGRVTISVDKSKNQFSLRLNSVTAADTAVYYCARVAHYDSNGYYIGYFDLWGRGTLVTVSS VL: EIVLTQSPPSLSASVGDRVTITCRASQSISIYLNWYQQKPGKAPKLLIFAASSLQSGVPLRFSGSGSGTDFTLTISSLQPEDFATYYCHQSYSAPWTFGQGTKVDIK	> 25 µg/mL
